B1: CPXM2 (parent)
chain: TASTKNCMVGYDMGATRCDFTLSK

Variants of: B1
Assay: protein stability index of a GFP-peptide fusion (GPS, HEK-293T) (PSI 1-6); higher = more stable
Settings: c terminus: a fixed tail appended
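Further: lentivirally expressed fusions sorted by FACS into six bins by GFP to DsRed ratio, PSI derived from sequencing read proportions per bin multiplied by bin number.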

Question: With TASTKNCMVTYDMGATRCDFTLSK as the variant, how does the protein stability index read?
Answer: 1.93

Question: For TASTKNCMVYYDMGATRCDFTLSK, which protein stability index is on record?
Answer: 3.56

Question: Which protein stability index does the source give for TASTKNCMVPYDMGATRCDFTLSK here?
Answer: 1.76

Question: Which protein stability index does the source give for TASTKNCMVLYDMGATRCDFTLSK here?
Answer: 2.38

Question: Which protein stability index does the source give for TASTKNCMVIYDMGATRCDFTLSK here?
Answer: 1.67

Question: With TASTKNCMVCYDMGATRCDFTLSK as the variant, how does the protein stability index read?
Answer: 2.2

Question: With TASTKNCMVVYDMGATRCDFTLSK as the variant, how does the protein stability index read?
Answer: 2.72

Question: With TASTKNCMVWYDMGATRCDFTLSK as the variant, how does the protein stability index read?
Answer: 1.64

Question: For TASTKNCMVFYDMGATRCDFTLSK, which protein stability index is on record?
Answer: 1.58

Question: For TASTKNCMVSYDMGATRCDFTLSK, which protein stability index is on record?
Answer: 2.75

Question: Which protein stability index does the source give for TASTKNCMVHYDMGATRCDFTLSK here?
Answer: 1.74

Question: Which protein stability index does the source give for TASTKNCMVNYDMGATRCDFTLSK here?
Answer: 1.86

Question: For TASTKNCMVKYDMGATRCDFTLSK, which protein stability index is on record?
Answer: 2.42

Question: With TASTKNCMVAYDMGATRCDFTLSK as the variant, how does the protein stability index read?
Answer: 1.97

Question: For TASTKNCMVDYDMGATRCDFTLSK, which protein stability index is on record?
Answer: 2.37

Question: Which protein stability index does the source give for TASTKNCMVMYDMGATRCDFTLSK here?
Answer: 1.96

Question: Which protein stability index does the source give for TASTKNCMVQYDMGATRCDFTLSK here?
Answer: 1.73

Question: With TASTKNCMVEYDMGATRCDFTLSK as the variant, how does the protein stability index read?
Answer: 2.69

Question: Which protein stability index does the source give for TASTKNCMVRYDMGATRCDFTLSK here?
Answer: 1.84

Question: Which protein stability index does the source give for TASTKNCMVGYSMGATRCDFTLSK here?
Answer: 2.72

Question: With TASTKNCMVGYTMGATRCDFTLSK as the variant, how does the protein stability index read?
Answer: 1.98

Question: Which protein stability index does the source give for TASTKNCMVGYVMGATRCDFTLSK here?
Answer: 2.44

Question: Which protein stability index does the source give for TASTKNCMVGYAMGATRCDFTLSK here?
Answer: 2.37

Question: With TASTKNCMVGYFMGATRCDFTLSK as the variant, how does the protein stability index read?
Answer: 1.62

Question: For TASTKNCMVGYKMGATRCDFTLSK, which protein stability index is on record?
Answer: 2.47

Question: With TASTKNCMVGYPMGATRCDFTLSK as the variant, how does the protein stability index read?
Answer: 2.15

Question: Which protein stability index does the source give for TASTKNCMVGYMMGATRCDFTLSK here?
Answer: 1.46

Question: Which protein stability index does the source give for TASTKNCMVGYHMGATRCDFTLSK here?
Answer: 2.14

Question: With TASTKNCMVGYEMGATRCDFTLSK as the variant, how does the protein stability index read?
Answer: 2.02

Question: Which protein stability index does the source give for TASTKNCMVGYWMGATRCDFTLSK here?
Answer: 1.98

Question: With TASTKNCMVGYGMGATRCDFTLSK as the variant, how does the protein stability index read?
Answer: 1.89

Question: With TASTKNCMVGYLMGATRCDFTLSK as the variant, how does the protein stability index read?
Answer: 1.21

Question: Which protein stability index does the source give for TASTKNCMVGYIMGATRCDFTLSK here?
Answer: 1.58

Question: With TASTKNCMVGYCMGATRCDFTLSK as the variant, how does the protein stability index read?
Answer: 1.88

Question: With TASTKNCMVGYRMGATRCDFTLSK as the variant, how does the protein stability index read?
Answer: 2.58

Question: For TASTKNCMVGYYMGATRCDFTLSK, which protein stability index is on record?
Answer: 1.69

Question: For TASTKNCMVGYNMGATRCDFTLSK, which protein stability index is on record?
Answer: 2.02

Question: For TASTKNCMVGYQMGATRCDFTLSK, which protein stability index is on record?
Answer: 2.14

Question: For TASTKNCMWGYDMGATRCDFTLSK, which protein stability index is on record?
Answer: 2.09

Question: For TASTKNCMKGYDMGATRCDFTLSK, which protein stability index is on record?
Answer: 2.12

Question: For TASTKNCMSGYDMGATRCDFTLSK, which protein stability index is on record?
Answer: 2.36

Question: For TASTKNCMFGYDMGATRCDFTLSK, which protein stability index is on record?
Answer: 1.63

Question: Which protein stability index does the source give for TASTKNCMNGYDMGATRCDFTLSK here?
Answer: 2.81

Question: Which protein stability index does the source give for TASTKNCMPGYDMGATRCDFTLSK here?
Answer: 2.89

Question: With TASTKNCMGGYDMGATRCDFTLSK as the variant, how does the protein stability index read?
Answer: 3.52

Question: For TASTKNCMTGYDMGATRCDFTLSK, which protein stability index is on record?
Answer: 3.22

Question: Which protein stability index does the source give for TASTKNCMCGYDMGATRCDFTLSK here?
Answer: 2.31

Question: Which protein stability index does the source give for TASTKNCMHGYDMGATRCDFTLSK here?
Answer: 2.3

Question: Which protein stability index does the source give for TASTKNCMRGYDMGATRCDFTLSK here?
Answer: 2.18

Question: For TASTKNCMDGYDMGATRCDFTLSK, which protein stability index is on record?
Answer: 3.58

Question: With TASTKNCMEGYDMGATRCDFTLSK as the variant, how does the protein stability index read?
Answer: 3.33

Question: For TASTKNCMYGYDMGATRCDFTLSK, which protein stability index is on record?
Answer: 2

Question: For TASTKNCMAGYDMGATRCDFTLSK, which protein stability index is on record?
Answer: 2.62

Question: For TASTKNCMQGYDMGATRCDFTLSK, which protein stability index is on record?
Answer: 3.5

Question: With TASTKNCMLGYDMGATRCDFTLSK as the variant, how does the protein stability index read?
Answer: 2.05

Question: Which protein stability index does the source give for TASTKNCMMGYDMGATRCDFTLSK here?
Answer: 2.42

Question: For TASTKNCMIGYDMGATRCDFTLSK, which protein stability index is on record?
Answer: 2.49

Question: With TASTKNCMVGYDIGATRCDFTLSK as the variant, how does the protein stability index read?
Answer: 2.11

Question: Which protein stability index does the source give for TASTKNCMVGYDQGATRCDFTLSK here?
Answer: 3.19

Question: With TASTKNCMVGYDHGATRCDFTLSK as the variant, how does the protein stability index read?
Answer: 2.64

Question: Which protein stability index does the source give for TASTKNCMVGYDPGATRCDFTLSK here?
Answer: 2.31

Question: With TASTKNCMVGYDEGATRCDFTLSK as the variant, how does the protein stability index read?
Answer: 3.92

Question: Which protein stability index does the source give for TASTKNCMVGYDAGATRCDFTLSK here?
Answer: 2.74

Question: Which protein stability index does the source give for TASTKNCMVGYDGGATRCDFTLSK here?
Answer: 2.99

Question: With TASTKNCMVGYDKGATRCDFTLSK as the variant, how does the protein stability index read?
Answer: 1.91

Question: With TASTKNCMVGYDDGATRCDFTLSK as the variant, how does the protein stability index read?
Answer: 3.76

Question: With TASTKNCMVGYDNGATRCDFTLSK as the variant, how does the protein stability index read?
Answer: 3.21

Question: Which protein stability index does the source give for TASTKNCMVGYDCGATRCDFTLSK here?
Answer: 2.08

Question: With TASTKNCMVGYDLGATRCDFTLSK as the variant, how does the protein stability index read?
Answer: 2.58

Question: With TASTKNCMVGYDFGATRCDFTLSK as the variant, how does the protein stability index read?
Answer: 2.01

Question: Which protein stability index does the source give for TASTKNCSVGYDMGATRCDFTLSK here?
Answer: 2.48

Question: Which protein stability index does the source give for TASTKNCYVGYDMGATRCDFTLSK here?
Answer: 2.22

Question: Which protein stability index does the source give for TASTKNCWVGYDMGATRCDFTLSK here?
Answer: 2.15

Question: Which protein stability index does the source give for TASTKNCTVGYDMGATRCDFTLSK here?
Answer: 2.42

Question: Which protein stability index does the source give for TASTKNCVVGYDMGATRCDFTLSK here?
Answer: 2.03

Question: With TASTKNCMVGRDMGATRCDFTLSK as the variant, how does the protein stability index read?
Answer: 2.59

Question: Which protein stability index does the source give for TASTKNCMVGFDMGATRCDFTLSK here?
Answer: 1.38

Question: Which protein stability index does the source give for TASTKNCMVGSDMGATRCDFTLSK here?
Answer: 2.28

Question: For TASTKNCMVGIDMGATRCDFTLSK, which protein stability index is on record?
Answer: 2.06

Question: Which protein stability index does the source give for TASTKNCMVGMDMGATRCDFTLSK here?
Answer: 2.49

Question: With TASTKNCMVGEDMGATRCDFTLSK as the variant, how does the protein stability index read?
Answer: 3.49

Question: Which protein stability index does the source give for TASTKNCMVGPDMGATRCDFTLSK here?
Answer: 2.31

Question: Which protein stability index does the source give for TASTKNCMVGVDMGATRCDFTLSK here?
Answer: 2.33

Question: With TASTKNCMVGTDMGATRCDFTLSK as the variant, how does the protein stability index read?
Answer: 2.85

Question: With TASTKNCMVGKDMGATRCDFTLSK as the variant, how does the protein stability index read?
Answer: 2.96

Question: Which protein stability index does the source give for TASTKNCMVGCDMGATRCDFTLSK here?
Answer: 2.07

Question: Which protein stability index does the source give for TASTKNCMVGWDMGATRCDFTLSK here?
Answer: 2.23

Question: Which protein stability index does the source give for TASTKNCMVGHDMGATRCDFTLSK here?
Answer: 3.32

Question: Which protein stability index does the source give for TASTKNCMVGGDMGATRCDFTLSK here?
Answer: 3.49

Question: Which protein stability index does the source give for TASTKNCMVGDDMGATRCDFTLSK here?
Answer: 3.33

Question: With TASTKNCMVGLDMGATRCDFTLSK as the variant, how does the protein stability index read?
Answer: 2.41

Question: Which protein stability index does the source give for TASTKNCMVGQDMGATRCDFTLSK here?
Answer: 3

Question: For TASTKNCMVGNDMGATRCDFTLSK, which protein stability index is on record?
Answer: 2.6

Question: Which protein stability index does the source give for TASTKNCMVGADMGATRCDFTLSK here?
Answer: 2.92
